T1: Human VE-PTP (HPTP-β) containing first eight FN3 repeats with C-terminal His6 tag (Human ½ VE-PTP ECD) (human, UniProt P23467 23-820)
T1 construct: Produced in HEK293 cells and purified by the His tag; it was not cut off; also called Human Beta ½ ECD
T1 sequence: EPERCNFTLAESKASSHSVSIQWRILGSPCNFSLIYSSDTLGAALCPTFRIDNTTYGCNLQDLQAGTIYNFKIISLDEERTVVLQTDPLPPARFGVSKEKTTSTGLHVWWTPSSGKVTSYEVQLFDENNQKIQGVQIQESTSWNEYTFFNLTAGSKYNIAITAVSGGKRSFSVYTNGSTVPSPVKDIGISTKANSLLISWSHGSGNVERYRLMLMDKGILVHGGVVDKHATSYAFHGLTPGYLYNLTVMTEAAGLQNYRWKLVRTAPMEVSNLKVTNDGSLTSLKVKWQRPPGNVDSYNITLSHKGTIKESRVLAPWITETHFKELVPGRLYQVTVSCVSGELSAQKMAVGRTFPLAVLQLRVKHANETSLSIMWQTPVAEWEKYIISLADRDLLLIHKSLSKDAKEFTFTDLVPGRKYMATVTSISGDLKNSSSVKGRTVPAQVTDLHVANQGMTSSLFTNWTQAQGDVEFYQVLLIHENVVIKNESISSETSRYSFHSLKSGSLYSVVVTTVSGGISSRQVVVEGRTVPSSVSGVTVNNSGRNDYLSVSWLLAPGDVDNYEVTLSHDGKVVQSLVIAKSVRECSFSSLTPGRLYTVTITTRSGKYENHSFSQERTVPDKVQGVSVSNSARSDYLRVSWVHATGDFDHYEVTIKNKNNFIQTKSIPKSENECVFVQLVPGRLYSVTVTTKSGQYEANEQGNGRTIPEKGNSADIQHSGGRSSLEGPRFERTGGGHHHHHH

B1: humanized R15E6 variant HC2LC1 (antibody, human IgG4 S228P, kappa, V domains shown)
VH: EVQLVESGGGLVQPGGSLRLSCAASGFTFNANAMNWVRQAPGKGLEWVGRIRTKSNNYATYYAGSVKDRFTISRDDSKNSLYLQMNSLKTEDTAVYYCVRDYYGSSAWITYWGQGTLVTVSS
VL: DVVMTQSPSFLSASVGDRVTITCKASQHVGTAVAWYQQRPGKAPKLLIYWASTRHTGVPSRFSGSGSGTEFTLTISSLQPEDFATYFCQQYSSYPFTFGGGTKLEIKR
notes: Human IgG4 (S228P) / kappa, expressed in CHO cells; Signal peptides left out by range; also called VH2-VL1
B2: humanized R15E6 variant HC2LC2 (antibody, human IgG4 S228P, kappa, V domains shown)
VH: EVQLVESGGGLVQPGGSLRLSCAASGFTFNANAMNWVRQAPGKGLEWVGRIRTKSNNYATYYAGSVKDRFTISRDDSKNSLYLQMNSLKTEDTAVYYCVRDYYGSSAWITYWGQGTLVTVSS
VL: DIVMTQSPDSLAVSLGERATINCKASQHVGTAVAWYQQKPGQPPKLLIYWASTRHTGVPDRFSGSGSGTDFTLTISSLQAEDVAVYYCQQYSSYPFTFGQGTKLEIKR
notes: Human IgG4 (S228P) / kappa, expressed in CHO cells; Signal peptides left out by range; also called VH2-VL2
B3: humanized R15E6 variant HC2LC3 (antibody, human IgG4 S228P, kappa, V domains shown)
VH: EVQLVESGGGLVQPGGSLRLSCAASGFTFNANAMNWVRQAPGKGLEWVGRIRTKSNNYATYYAGSVKDRFTISRDDSKNSLYLQMNSLKTEDTAVYYCVRDYYGSSAWITYWGQGTLVTVSS
VL: DIQMTQSPFSLSASVGDRVTITCKASQHVGTAVAWYQQKPGKAPKLLIYWASTRHTGVPSRFSGSGSGTDFTLTISSLQPEDFATYFCQQYSSYPFTFGGGTKLEIKR
notes: Human IgG4 (S228P) / kappa, expressed in CHO cells; Signal peptides left out by range; also called VH2-VL3
B4: humanized R15E6 variant HC2LC4 (antibody, human IgG4 S228P, kappa, V domains shown)
VH: EVQLVESGGGLVQPGGSLRLSCAASGFTFNANAMNWVRQAPGKGLEWVGRIRTKSNNYATYYAGSVKDRFTISRDDSKNSLYLQMNSLKTEDTAVYYCVRDYYGSSAWITYWGQGTLVTVSS
VL: DIVMTQSPDSLAVSLGERATINCKASQHVGTAVAWYQQKPEQPPKLLIYWASTRHTGVPDRFSGSGSGTDFTLTISSLQAEDVAVYYCQQYSSYPFTFGGGTKVEIKR
notes: Human IgG4 (S228P) / kappa, expressed in CHO cells; Signal peptides left out by range; also called VH2-VL4
B5: humanized R15E6 variant HC1LC2 (antibody, human IgG4 S228P, kappa, V domains shown)
VH: EVQLVESGGGLVQPGGSLKLSCAASGFTFNANAMNWVRQASGKGLEWVGRIRTKSNNYATYYAGSVKDRFTISRDDSKNTAYLQMNSLKTEDTAAYYCVRDYYGSSAWITYWGQGTLVTVSS
VL: DIVMTQSPDSLAVSLGERATINCKASQHVGTAVAWYQQKPGQPPKLLIYWASTRHTGVPDRFSGSGSGTDFTLTISSLQAEDVAVYYCQQYSSYPFTFGQGTKLEIKR
notes: Human IgG4 (S228P) / kappa, expressed in CHO cells; Signal peptides left out by range; also called VH1-VL2
B6: humanized R15E6 variant HC1LC4 (antibody, human IgG4 S228P, kappa, V domains shown)
VH: EVQLVESGGGLVQPGGSLKLSCAASGFTFNANAMNWVRQASGKGLEWVGRIRTKSNNYATYYAGSVKDRFTISRDDSKNTAYLQMNSLKTEDTAAYYCVRDYYGSSAWITYWGQGTLVTVSS
VL: DIVMTQSPDSLAVSLGERATINCKASQHVGTAVAWYQQKPEQPPKLLIYWASTRHTGVPDRFSGSGSGTDFTLTISSLQAEDVAVYYCQQYSSYPFTFGGGTKVEIKR
notes: Human IgG4 (S228P) / kappa, expressed in CHO cells; Signal peptides left out by range; also called VH1-VL4
B7: humanized R15E6 variant HC3LC4 (antibody, human IgG4 S228P, kappa, V domains shown)
VH: EVQLVESGGGLVQPGRSLRLSCTASGFTFNANAMNWVRQAPGKGLEWVGRIRTKSNNYATYYAGSVKDRFTISRDDSKNIAYLQMNSLKTEDTAVYYCVRDYYGSSAWITYWGQGTLVTVSS
VL: DIVMTQSPDSLAVSLGERATINCKASQHVGTAVAWYQQKPEQPPKLLIYWASTRHTGVPDRFSGSGSGTDFTLTISSLQAEDVAVYYCQQYSSYPFTFGGGTKVEIKR
notes: Human IgG4 (S228P) / kappa, expressed in CHO cells; Signal peptides left out by range; also called VH3-VL4
B8: mouse/human chimeric antibody HC0LC0 (antibody, human IgG4 S228P, kappa, V domains shown)
VH: EVQLVETGGGLVQPKGSMKLSCAASGFTFNANAMNWIRQAPGKGLEWVARIRTKSNNYATYYAGSVKDRFTISRDDAQNMLYLQMNDLKTEDTAMYYCVRDYYGSSAWITYWGQGTLVTVSA
VL: DIVMTQSHKFMSTSVGDRVSITCKASQHVGTAVAWYQQKPDQSPKQLIYWASTRHTGVPDRFTGSGSGTDFTLTISNVQSEDLADYFCQQYSSYPFTFGSGTKLEIKR
notes: Murine variable domains of R15E6 on human IgG4 (S228P) and kappa constant domains, expressed in CHO cells; also called VH0-VL0

Legend:
[1] = target: T1, Human VE-PTP (HPTP-β) containing first …; experiment: ELISA, antigen coated at 1 µg/mL, antibody 1 µg/well
Procedure: HPTP-β, cyno PTP-β, and HPTP-η proteins were coated onto ELISA plates in coating buffer (pH 9.4). Each protein was prepared as a 1 μg/mL protein stock in 50 mM carbonate-bicarbonate. The coated proteins were aliquoted at a volume of 100 μL/well into sterile, clear, polystyrene, flat bottom 96-well plates. The plates were incubated overnight at 4° C. After overnight incubation, the plates were washed 3× with 200 μL/well of 1×PBS-T (PBS with 0.05% Tween 20). The immunizing protein was human VE-PTP (HPTP-β). The plates were then blocked with 200 μL/well of 5% blotting grade blocker non-fat dry milk in PBS-T and incubated for 1 hr at room temperature.
Primary antibody samples were prepared for the humanized variants and the negative control, anti-hCD20-hIgG4S228P, using 1 μg/well in 5% blotting grade blocker non-fat dry milk in PBS. Samples were tested in triplicates. The Fab antibody fragments were treated as the IgG antibodies. The plates were then washed 3× with PBS-T and 100 μL of primary antibody preparation was added in each well. The plates were then incubated for 1 hr at room temperature.
Then, […] Ultra TMB-ELISA was added in each well, and the plate was allowed to develop for 5 min at room temperature. After 5 min, 50 μL of 2 M sulfuric acid was added to each well to stop the reaction. The plates were then analyzed on a plate reader at an absorbance wavelength of 450 nm.

[2] = target: T1, Human VE-PTP (HPTP-β) containing first …; experiment: SPR (Biacore 3000), antibody captured on anti-human IgG, antigen as analyte 50-0 nM
Procedure: (§1) Samples of each variant were further assessed by Biacore analysis to determine the binding affinity. Antibody binding experiments were performed on Biacore 3000™ at 25° C. Assay buffer: 10 mM HEPES buffer (pH 7.4), 150 mM NaCl, 3 mM EDTA, 0.05% P20 (polyoxyethylenesorbitan). […] Conjugation buffer: 10 mM sodium acetate buffer (pH 5). The flow rate used for capturing the ligand was 5 μL/min. The flow rate for the kinetic analysis was 50 μL/min. Flow cell 1 and […] of the CM5 chip were coated with maximum amounts of goat anti-human IgG. Approximately 150 RU of the test antibody was captured on flow cell 2, 3, and 4 as indicated. The antigen was flowed over the chip. Binding of the antigen to the antibodies was monitored in real time. The KD was determined from the observed kₒₙ and koff values.

[3] = target: T1, Human VE-PTP (HPTP-β) containing first …; experiment: SPR (Biacore 3000), antibody captured on anti-human IgG, antigen as analyte 100 nM (single concentration)
Procedure: as §1
A scouting analysis was performed using single analyte concentrations as indicated. At these concentrations, binding can be observed even if the ligand binding is weak. Flow cell 1 response was used for reference subtraction.

[4] = target: T1, Human VE-PTP (HPTP-β) containing first …; experiment: SPR (Biacore 3000), antibody captured on anti-human IgG, antigen as analyte 25-0 nM
Procedure: as §1

| Binder | ELISA value (absorbance at 450 nm) [1] | Ka [2] | Kd [2] | koff [2] | kon [2] | Ka [3] | Kd [3] | koff [3] | kon [3] | Ka [4] | Kd [4] | koff [4] | kon [4] |
| --- | --- | --- | --- | --- | --- | --- | --- | --- | --- | --- | --- | --- | --- |
| B1 | 1.81 | 1.5e+10 M⁻¹ | 0.0668 nM | 7.23e-05 s⁻¹ | 1.08e+06 M⁻¹ s⁻¹ | 7.24e+07 M⁻¹ | 13.8 nM | 0.000688 s⁻¹ | 49800 M⁻¹ s⁻¹ |  |  |  |  |
| B2 | 1.92 |  |  |  |  | 2.85e+08 M⁻¹ | 3.51 nM | 0.000524 s⁻¹ | 149000 M⁻¹ s⁻¹ | 1.98e+07 M⁻¹ | 50.6 nM | 0.00215 s⁻¹ | 42500 M⁻¹ s⁻¹ |
| B3 | 1.55 |  |  |  |  | 3.36e+08 M⁻¹ | 2.98 nM | 0.000662 s⁻¹ | 222000 M⁻¹ s⁻¹ | 6.75e+08 M⁻¹ | 1.48 nM | 0.00123 s⁻¹ | 890000 M⁻¹ s⁻¹ |
| B4 | 1.65 | 2.3e+09 M⁻¹ | 0.436 nM | 0.000429 s⁻¹ | 986000 M⁻¹ s⁻¹ | 7.72e+07 M⁻¹ | 13 nM | 0.000668 s⁻¹ | 51500 M⁻¹ s⁻¹ |  |  |  |  |
| B5 | 1.75 | 4.33e+08 M⁻¹ | 2.31 nM | 0.000947 s⁻¹ | 410000 M⁻¹ s⁻¹ | 3.27e+08 M⁻¹ | 3.06 nM | 0.000769 s⁻¹ | 251000 M⁻¹ s⁻¹ |  |  |  |  |
| B6 | 1.74 | 4.44e+08 M⁻¹ | 2.25 nM | 0.00134 s⁻¹ | 596000 M⁻¹ s⁻¹ | 2.26e+08 M⁻¹ | 4.42 nM | 0.000792 s⁻¹ | 179000 M⁻¹ s⁻¹ |  |  |  |  |
| B7 | 2 |  |  |  |  | 1.59e+08 M⁻¹ | 6.29 nM | 0.000887 s⁻¹ | 139000 M⁻¹ s⁻¹ | 1.23e+08 M⁻¹ | 8.14 nM | 0.00109 s⁻¹ | 134000 M⁻¹ s⁻¹ |
| B8 | 1.8 | 3.18e+08 M⁻¹ | 3.14 nM | 0.000656 s⁻¹ | 209000 M⁻¹ s⁻¹ | 1.61e+08 M⁻¹ | 6.22 nM | 0.000417 s⁻¹ | 67100 M⁻¹ s⁻¹ |  |  |  |  |

Reference: patent US20190077863A1 (AERPIO PHARMACEUTICALS, published 2019)
